3 molecules from patent US20050095242A1 (published 2005) can be followed below.

No end group written: not given here.

In assay [1] the target is T1, BSA-Compound 1 conjugate (human CCR4 extracellular region peptide Compound 1 conjugated to bovine serum … (human, also: conjugated to BSA via SMCC)).
T1 construct: Coated antigen of the ELISA; also called CCR4 partial peptide
T1 peptide: DESIYSNYYLYESIPKPC
Briefly: ELISA, COS-7 culture supernatant on BSA-Compound 1 conjugate. As for the experimental part: Into a 96 well ELISA plate (manufactured by Greiner), 0.05 μg/ml of the prepared conjugate was dispensed in at 50 μl/well and allowed to stand at 4° C. overnight for adsorption. After washing with PBS, PBS containing 1% BSA (hereinafter referred to as “1% BSA-PBS”) was added thereto at 100 μl/well and allowed to react at room temperature for 1 hour to block the remaining active groups. After washing each well with PBS containing 0.05% Tween 20 (hereinafter referred to as “Tween-PBS”), a culture supernatant of the transformant was added at 50 μl/well and allowed to react at room temperature for 1 hour. After the reaction and subsequent washing of each well with Tween-PBS, a peroxidase-labeled goat anti-human IgG(γ) antibody solution (manufactured by American Qualex) diluted 6,000 folds with 1% BSA-PBS was added as a secondary antibody solution at 50 μl/well and allowed to react at room temperature for 1 hour. After the reaction and subsequent washing with Tween-PBS, an ABTS substrate solution (a solution prepared by dissolving 0.55 g of 2,2′-azino-bis(3-ethylbenzothiazoline-6-sulfonic acid) ammonium in 1 liter of 0.1 M citrate buffer (pH 4.2) and adding 1 μl/ml hydrogen peroxide just before use) was added at 50 μl well to develop color, and the reaction was stopped 20 minutes thereafter by adding 5% SDS solution at 50 μl/well. Thereafter, absorbance at 415 nm was measured.

The target in assay [2] is T2, biotinylated Compound 1 (biotinylated CCR4 partial peptide) (human, also: biotinylated, site not given here).
T2 peptide: DESIYSNYYLYESIPKPC
Briefly: BIAcore 2000, 4 ug/ml antibody over biotinylated Compound 1 on SA sensor tip. The method, then:
In order to measure the binding activity in more detail, the binding activity of various purified antibodies was measured by using BIAcore 2000 (manufactured by BIACORE) as follows. In this case, HBS-EP (manufactured by BIACORE) was used as the buffer for diluting samples and for the measurement. First, 5 μl of 0.01 μg/ml solution of Compound 1 as a biotinylated CCR4 partial peptide was added to a sensor tip SA (manufactured by BIACORE) at a flow rate of 5 μl/minute and immobilized on the sensor tip.
To the prepared biotinylated compound 1-immobilized sensor tip, 20 μl of 4 μg/ml solution of each of the purified antibodies was added at a flow rate of 5 μl/minute, and after completion of the addition, the dissociation reaction was monitored for 4 minutes and then the sensor tip surface was regenerated by adding 5 μl of 10 mM HCl twice. In this way, a binding reaction curve (sensorgram) for Compound 1 was obtained.
(In general: Surface plasmon resonance follows binding to a sensor surface in real time, without labels.)

Assay [3] deals with T1, BSA-Compound 1 conjugate (human CCR4 …). Briefly: ELISA on BSA-Compound 1 conjugate, reference antibody.
For assay [4], the target named is T3, human CCR4 on CCR4/EL-4 cells (CCR4-high-expressing cells) (human, UniProt P51679 1-360).
T3 construct: also called human CCR4-high-expressing cell
T3 sequence: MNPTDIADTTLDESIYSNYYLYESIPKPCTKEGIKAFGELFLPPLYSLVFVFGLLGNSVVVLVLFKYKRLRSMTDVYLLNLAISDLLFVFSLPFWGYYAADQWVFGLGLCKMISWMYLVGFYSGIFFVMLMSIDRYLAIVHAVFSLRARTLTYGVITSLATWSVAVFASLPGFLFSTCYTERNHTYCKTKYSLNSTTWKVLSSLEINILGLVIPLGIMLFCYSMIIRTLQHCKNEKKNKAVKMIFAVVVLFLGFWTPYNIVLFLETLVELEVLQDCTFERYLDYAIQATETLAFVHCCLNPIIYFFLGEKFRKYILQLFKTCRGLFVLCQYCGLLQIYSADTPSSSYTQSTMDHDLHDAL
The experiment in a line: flow cytometry (immunofluorescent method) on CCR4/EL-4 cells, 10 ug/ml antibody, reference antibody. The method, then: Into a 96 well plate, 2×10⁵ or more of CCR4/EL-4 cells, CCR4-high-expressing cells obtained in Reference Example 1, were dispensed. An antibody solution was prepared by diluting each of the purified antibodies and a human immunoglobulin (manufactured by Welfide) for preventing nonspecific staining to give concentrations of 10 μg/ml and 3.75 mg/ml, respectively, with a buffer for FACS (1% BSA-PBS, 0.02% EDTA, 0.05% NaN₃), and the antibody solution was added at 100 μl/well and allowed to react for 30 minutes in ice. As a negative control, an anti-human IL-5 receptor α chain antibody (WO97/10354) was reacted with the same concentration. After washing twice with 200 μl/well of the buffer for FACS, a PE-labeled anti-human IgG antibody (manufactured by Coulter) diluted 100 times was added at 50 μl/well. After the reaction in ice under shading and subsequent washing three times with 200 μl/well of the buffer for FACS, the reaction product was suspended in 500 µl of the buffer for FACS and the fluorescence intensity was measured by using a flow cytometer.

B1: anti-CCR4 CDR-grafted antibody Gal0LV0 (antibody, V domains shown)
VH: EVQLVESGGDLVQPGRSLRLSCAASGFIFSNYGMSWVRQAPGKGLEWVATISSASTYSYYPDSVKGRFTISRDNAKNSLYLQMNSLRVEDTALYYCARHSDGNFAFGYWGQGTLVTVSS
VL: DIVMTQSPLSLPVTPGEPASISCRSSRNIVHINGDTYLEWYLQKPGQSPQLLIYKVSNRFSGVPDRFSGSGSGTDFTLKISRVEAEDVGVYYCFQGSLLPWTFGQGTKVEIK
notes: Expressed from pKANTEX93 with human CH and CL; CDR alone grafted
As for B1, the binding result in assay [1] and in assay [2] was “binds” throughout.

B2: anti-CCR4 CDR-grafted antibody HV0LV0 (antibody, V domains shown)
VH: EVQLVESGGGLVQPGGSLRLSCAASGFTFSNYGMSWVRQAPGKGLEWVSTISSASTYSYYPDSVKGRFTISRDNSKNTLYLQMNSLRAEDTAVYYCARHSDGNFAFGYWGQGTLVTVSS
VL: DIVMTQSPLSLPVTPGEPASISCRSSRNIVHINGDTYLEWYLQKPGQSPQLLIYKVSNRFSGVPDRFSGSGSGTDFTLKISRVEAEDVGVYYCFQGSLLPWTFGQGTKVEIK
notes: Expressed from pKANTEX93 with human CH and CL
On to B2, for which the binding result in assay [1] is “binds”.

B3: anti-CCR4 human chimeric antibody KM2760 (antibody, V domains shown)
VH: EVQLVESGGDLMKPGGSLKISCAASGFIFSNYGMSWVRQTPDMRLEWVATISSASTYSYYPDSVKGRFTISRDNAENSLYLQMNSLRSEDTGIYYCGRHSDGNFAFGYWGRGTLVTVSA
VL: DVLMTQTPLSLPVSLGDQASISCRSSRNIVHINGDTYLEWYLQRPGQSPKLLIYKVSNRFSGVPDRFSGSGSGTDFTLKISRVEAEDLGVYYCFQGSLLPWTFGGGTRLEIRR
notes: Produced by transformant KM2760 (FERM BP-7054); also called anti-CCR4 chimeric antibody KM2760
On to B3, for which the binding result in assay [3] and in assay [4] was “binds” in each case.
